Data on two molecules can be found in patent publication US10202593B2, “Evolved sortases and uses thereof” (President and Fellows of Harvard College, priority 2013, dated 2019).

Bounds are passed on as bounds.

One assay relates to Abz-LXEXGK(Dnp) peptides. The assay is described as follows: Enzyme specificity assay (percent substrate conversion by HPLC). Format: biochemical. The procedure:
(A, D) For each of eSrtA, eSrtA(2A-9), and eSrtA(4S-9), we incubated an activity matched quantity of enzyme (47.5 nM eSrtA, 450 nM eSrtA(2A-9), 115 nM eSrtA(4S-9)) with 10 μM Abz-LXEXGK(Dnp) (SEQ ID NO: 33) and 100 mM Gly-Gly-Gly peptide as listed for 15 minutes. Percent substrate conversion was monitored by reverse phase HPLC analysis and UV absorbance at 355 nm. […] LPEXG: SEQ ID NO: 34.
Assays to determine eSrtA, eSrtA(2A-9) and eSrtA(4S-9) specificity were performed by preparing 10 μM stocks of Abz-LXEXGK(Dnp) (SEQ ID NO: 75) peptides in 300 mM Tris pH 7.5, 150 mM NaCl, 5 mM CaCl2, 5% v/v DMSO, and 100 mM Gly-Gly-Gly-COOH (GGG). Reactions were performed by adding eSrtA(2A-9) to a final concentration of 450 nM, eSrtA(4S-9) to a final concentration of 115 nM or eSrtA to a final concentration of 47.5 nM and a final volume of 100 μL, then incubating at 22.5° C. for 15 minutes. Reactions were quenched by the addition of 0.2 volumes of 5 M HCl, then were injected onto an analytical reverse-phase Eclipse XDB-C18 HPLC column (4.6×150 mm, 5 μm, Agilent Technologies) and chromatographed using a gradient of 10 to 65% acetonitrile with 0.1% TFA in 0.1% aqueous TFA over 13 minutes. Retention times under these conditions for the Abz-LPETGK(Dnp)-CONH2 (SEQ ID NO: 19) substrate, the released GKDnp peptide, and the Abz-LPETGGG-COOH (SEQ ID NO: 20) product were 12.8, 10.4, and 9.1 min, respectively, while the remaining Abz-LXEXGK(Dnp)-CONH2 (SEQ ID NO: 74) substrates varied in retention time between 9 and 13 minutes. To calculate the percent conversion, the ratio of the integrated areas of the GK(Dnp)-CONH2 and Abz-LPETGK(Dnp)-CONH2 (SEQ ID NO: 19) peptide Abs355 peaks were compared directly. Subsequent determination of kcat/Km and KH were performed as described for in vitro SrtA characterization.

The nature of assay [1]: Materials (surface) functionalization of GGG-PEG 96-well plates. Particulars: Alexa Fluor 488-LAETGG or Alexa Fluor 647-LPESGG, 2 hours. It is filed as biochemical. The procedure: FIG. 21A-D show applications of evolved sortases. (A) N- and C-terminal labeling of fibroblast growth factors FGF1 and FGF2. Tandem SUMO-TEV cleavage site-FGF1/2-LPESG-His6 (SEQ ID NO: 27) constructs were treated with eSrtA(4S-9) in the presence of GGG-PEG, then with eSrtA(2A-9) and TEV protease in the presence of Alexa Fluor750-LAETGG (SEQ ID NO: 35) and purified to afford the final conjugates in up to 20% yield (Table 3). The crude reactions were analyzed by SDS-PAGE and scanned for fluorescence at 700 nm. (B) Surface functionalization using eSrtA(2A-9) and eSrtA(4S-9). […] The total fluorescence of the resulting surfaces was measured at 488 nm or 647 nm, then normalized to the fluorescent intensities obtained from the samples containing eSrtA(2A-9)+488-LAETG (SEQ ID NO: 5) or eSrt(4S-9)+647-LPESG (SEQ ID NO: 3). […]
GGG-functionalized substrate was generated by incubating 100 μL of 2 μM biotin-PEG (5K)-GGG in streptavidin coated 96 well microplates (Pierce) for 2 hours at room temperature, and washed three times with TBST buffer (20 mM Tris, 100 mM NaCl, pH 7.5 with 0.05% Tween 20). […] Total fluorescent intensities were measured at 488 nm and 647 nm using a Biotek Synergy NEO HTS Multi Mode microplate reader. […]

B1: eSrtA(4S-9): P94R, N98D, S102C, A104V, A118T, F122A, K134R, F144L, D160N, D165A, I182V, E189F, K190E, K196T (protein)
chain: QAKPQIPKDKSKVAGYIEIPDADIKEPVYPGPATREQLDRGVCFVEENESLDDQNISITGHTAIDRPNYQFTNLRAAKKGSMVYLKVGNETRKYKMTSIRNVKPTAVEVLDEQKGKDKQLTLVTCDDYNFETGVWETRKIFVATEVK
Regarding B1, the “difference in transpeptidation of LPESG over LPETG” value in the assay on Abz-LXEXGK(Dnp) peptides (FIG. 20A, 10 μM peptide, 100 mM GGG, 15 minutes) is on record as “approximately 40 fold”. Besides, the “activity on the substrates LPEAG, LPECG and LPESG” value in the assay on Abz-LXEXGK(Dnp) peptides (position 4 substrate profile, FIGS. 20A-B) was “significant activity”. Further, the “modification of GGG-PEG-functionalized surfaces” value in assay [1] is given as “significant modification only on its cognate substrate”.

B2: eSrtA(2A-9): P94R, S102C, A104H, E105D, K138P, K152I, N160K, K162H, T164N, D165A, K173E, I182V, K190E, T196S (protein)
chain: QAKPQIPKDKSKVAGYIEIPDADIKEPVYPGPATREQLNRGVCFHDENESLDDQNISIAGHTFIDRPNYQFTNLKAAKPGSMVYFKVGNETRIYKMTSIRKVHPNAVEVLDEQEGKDKQLTLVTCDDYNEETGVWESRKIFVATEVK
Consider B2, for which the “reduced activity on the next most active substrates, LSETG and LRETG, versus LAETG” value in the assay on Abz-LXEXGK(Dnp) peptides (position 2 substrate profile, FIG. 20E) is above 20 fold. Also, the “modification of GGG-PEG-functionalized surfaces” value in assay [1] is reported as “significant modification only on its cognate substrate”.
